Consider three molecules from publication PMC6872632, “BIK1 and ERECTA Play Opposing Roles in Both Leaf and Inflorescence Development in Arabidopsis” (Frontiers in Plant Science, 2019).

Sequences and labels used below:
T1: BOTRYTIS-INDUCED KINASE1 (BIK1), His-tagged recombinant protein (Arabidopsis thaliana, UniProt O48814 1-395)
T1 construct: BOTRYTIS-INDUCED KINASE1 (BIK1), Arabidopsis thaliana, full-length ORF cloned into pET-28; source: E. coli BL21, purified (Ni-Sepharose beads)
T1 sequence (looked up): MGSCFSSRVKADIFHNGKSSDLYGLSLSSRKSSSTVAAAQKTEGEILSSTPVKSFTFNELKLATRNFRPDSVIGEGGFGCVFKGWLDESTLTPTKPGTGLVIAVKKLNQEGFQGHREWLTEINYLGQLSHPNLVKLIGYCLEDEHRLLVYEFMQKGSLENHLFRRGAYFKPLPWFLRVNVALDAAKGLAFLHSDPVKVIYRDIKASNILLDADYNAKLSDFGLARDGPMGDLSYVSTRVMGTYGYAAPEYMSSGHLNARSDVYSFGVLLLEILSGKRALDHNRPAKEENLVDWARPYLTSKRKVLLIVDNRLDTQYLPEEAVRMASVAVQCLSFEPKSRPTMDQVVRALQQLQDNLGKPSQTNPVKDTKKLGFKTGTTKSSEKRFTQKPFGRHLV

B1: ERL2 cytoplasmic domain, GST-tagged recombinant protein (domain or fragment, Arabidopsis thaliana, UniProt Q6XAT2 607-967, looked up)
chain: YKSKQQKPVLKGSSKQPEGSTKLVILHMDMAIHTFDDIMRVTENLDEKYIIGYGASSTVYKCTSKTSRPIAIKRIYNQYPSNFREFETELETIGSIRHRNIVSLHGYALSPFGNLLFYDYMENGSLWDLLHGPGKKVKLDWETRLKIAVGAAQGLAYLHHDCTPRIIHRDIKSSNILLDGNFEARLSDFGIAKSIPATKTYASTYVLGTIGYIDPEYARTSRLNEKSDIYSFGIVLLELLTGKKAVDNEANLHQMILSKADDNTVMEAVDAEVSVTCMDSGHIKKTFQLALLCTKRNPLERPTMQEVSRVLLSLVPSPPPKKLPSPAKVQEGEERRESHSSDTTTPQWFVQFREDISKSSL
notes: ERL2 (ER-LIKE2), Arabidopsis thaliana, truncated to the cytoplasmic domain (CD), in pGEX-4T-1; also called GST-ERL2-CD; source: E. coli BL21, purified (Glutathione Sepharose beads)
B2: ERECTA (ER) cytoplasmic domain, GST-tagged recombinant protein (domain or fragment, Arabidopsis thaliana, UniProt Q42371 602-976, looked up)
chain: CRPHNPPPFLDGSLDKPVTYSTPKLVILHMNMALHVYEDIMRMTENLSEKYIIGHGASSTVYKCVLKNCKPVAIKRLYSHNPQSMKQFETELEMLSSIKHRNLVSLQAYSLSHLGSLLFYDYLENGSLWDLLHGPTKKKTLDWDTRLKIAYGAAQGLAYLHHDCSPRIIHRDVKSSNILLDKDLEARLTDFGIAKSLCVSKSHTSTYVMGTIGYIDPEYARTSRLTEKSDVYSYGIVLLELLTRRKAVDDESNLHHLIMSKTGNNEVMEMADPDITSTCKDLGVVKKVFQLALLCTKRQPNDRPTMHQVTRVLGSFMLSEQPPAATDTSATLAGSCYVDEYANLKTPHSVNCSSMSASDAQLFLRFGQVISQNSE
notes: ERECTA (ER), Arabidopsis thaliana, truncated to the cytoplasmic domain (CD), in pGEX-4T-1; also called GST-ER-CD; ER-CD; source: E. coli BL21, purified (Glutathione Sepharose beads)
B3: ER-LIKE1 (ERL1) cytoplasmic domain, GST-tagged recombinant protein (domain or fragment, Arabidopsis thaliana, UniProt C0LGW6 604-966, looked up)
chain: YKSMQQKKILQGSSKQAEGLTKLVILHMDMAIHTFDDIMRVTENLNEKFIIGYGASSTVYKCALKSSRPIAIKRLYNQYPHNLREFETELETIGSIRHRNIVSLHGYALSPTGNLLFYDYMENGSLWDLLHGSLKKVKLDWETRLKIAVGAAQGLAYLHHDCTPRIIHRDIKSSNILLDENFEAHLSDFGIAKSIPASKTHASTYVLGTIGYIDPEYARTSRINEKSDIYSFGIVLLELLTGKKAVDNEANLHQLILSKADDNTVMEAVDPEVTVTCMDLGHIRKTFQLALLCTKRNPLERPTMLEVSRVLLSLVPSLQVAKKLPSLDHSTKKLQQENEVRNPDAEASQWFVQFREVISKSSI
notes: ER-LIKE1 (ERL1), Arabidopsis thaliana, truncated to the cytoplasmic domain (CD), in pGEX-4T-1; also called GST-ERL1-CD; source: E. coli BL21, purified (Glutathione Sepharose beads)

For the assay, the target named is T1, BOTRYTIS-INDUCED KINASE1 (BIK1), …. Description: pull-down; 10 µg BIK1-His and 10 µg GST-ER/ERL1/ERL2-CD or GST with glutathione agarose beads, 25 mM Tris-HCl pH 7.5, 150 mM NaCl, 1 mM DTT, 3 h; eluted with 30 mM glutathione; BIK1-His detected with anti-His antibody. To be noted: both partners purified.
With B1, the binding result is reported as “binds”. The entry for B2 is “binds”; for B3 it is “binds”.
